This passage reports Kd results from US20180044681A1.

In this test the target is EpCAM (Epithelial Cell Adhesion Molecule) (UniProt P16422). Description: binding to EpCAM-expressing cells; method not stated.
EpCAM (Epithelial Cell Adhesion Molecule), sequence (P16422 24-314 limits assumed): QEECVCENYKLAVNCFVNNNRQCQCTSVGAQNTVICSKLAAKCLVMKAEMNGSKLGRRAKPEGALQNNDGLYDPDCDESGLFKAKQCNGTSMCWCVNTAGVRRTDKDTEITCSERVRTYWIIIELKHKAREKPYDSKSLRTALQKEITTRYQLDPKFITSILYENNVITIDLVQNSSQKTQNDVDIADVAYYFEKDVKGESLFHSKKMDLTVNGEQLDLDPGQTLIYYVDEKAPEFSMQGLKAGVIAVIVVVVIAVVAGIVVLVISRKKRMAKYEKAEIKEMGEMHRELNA

Consider HEA125 antibody, for which the dissociation constant Kd – broadly, the free concentration of one partner at which half of the binding sites on the other are occupied at equilibrium, for simple one-to-one binding – came to 2.2 nM.
